Assay results published in patent US20210388105A1 (ELPISCIENCE SUZHOU BIOPHARMA, published 2021).

T1: human CD39 (full length, on cells) (human, UniProt P49961 1-510)
T1 construct: Recombinant on CHOK1-hCD39 cells or natural on SK-MEL-28, SK-MEL-5 and MOLP-8 cells; the cell line is named under assay; also called hCD39; ENTPD1
T1 sequence: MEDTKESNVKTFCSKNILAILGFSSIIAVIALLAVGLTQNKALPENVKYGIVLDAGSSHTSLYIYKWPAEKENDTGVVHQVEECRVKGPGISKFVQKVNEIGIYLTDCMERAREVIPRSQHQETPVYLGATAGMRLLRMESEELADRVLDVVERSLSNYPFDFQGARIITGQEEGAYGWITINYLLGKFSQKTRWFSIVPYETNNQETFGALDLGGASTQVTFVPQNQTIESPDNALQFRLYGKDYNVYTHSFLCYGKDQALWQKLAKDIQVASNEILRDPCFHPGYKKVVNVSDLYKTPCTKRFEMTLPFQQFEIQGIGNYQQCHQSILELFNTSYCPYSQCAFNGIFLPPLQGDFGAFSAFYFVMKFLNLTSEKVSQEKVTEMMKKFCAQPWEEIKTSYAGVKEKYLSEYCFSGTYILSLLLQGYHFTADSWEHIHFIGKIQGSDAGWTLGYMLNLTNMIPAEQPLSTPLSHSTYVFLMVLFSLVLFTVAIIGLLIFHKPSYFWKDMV

B1: mAb14 (antibody, V domains shown)
VH: EVKLEESGGGLVQPGGSMKLSCVASGFTFSKYWMNWVRQSPEKGLEWVAEIRLKSNKYGTHYAESVKGRFTISRDDSKNNVYLQMNNLRPEDTGIYYCTTQLDLYWFFDVWGAGTTVTVSS
VL: DIVMTQSPAILSVTPGDRVSLSCRASQSISDYLHWYQQKSHESPRLLIKYASQSISGIPSRFSGSGSGSNFTLSINSVEPEDVGVYFCQNGHSLPLTFGAGTKLELR
notes: mouse hybridoma antibody
B2: Antibody T895 (antibody, V domains shown)
VH: EVQLQQSGPELVKPGASVKMSCKASGYTFTDYNMHWVKQSHGRTLEWIGYIVPLNGGSTFNQKFKGRATLTVNTSSRTAYMELRSLTSEDSAAYYCARGGTRFAYWGQGTLVTVSA
VL: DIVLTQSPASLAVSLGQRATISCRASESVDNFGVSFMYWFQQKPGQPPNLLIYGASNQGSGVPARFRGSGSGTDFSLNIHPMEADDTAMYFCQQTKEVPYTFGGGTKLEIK
notes: also called 31895
B3: Antibody 9-8B (antibody, V domains shown)
VH: QIQLVQSGPELKKPGETVKISCKASGYTFTHYGMNWVKQAPGKGLKWMGWINTYTGELTYADDFKGRFAFSLETSASTAYLQINNLKNEDTATYFCARRAYYRYDYVMDYWGQGTSVTVSS
VL: DIVMTQSQKFMSTSVGDRVSVTCKASHNVGTNVAWYQQKPGQSPKALIYSASYRYSGVPGRFTGSGSGTDFTLTISNVQSEDLAEYFCHQYNNYPYTFGGGTKLEIK
B4: hu23.H5L5 (antibody, V domains shown)
VH: QVQLVQSGAEVKKPGASVKVSCKASGYNLKDTFLHWVRQAPGQGLEWMGRIDPANGNIKYDPKFQGRVTITADTSANTAYMELISLRSEDTAVYYCANSPYYYGSGYRIFDVWGQGTTVTVSS
VL: QIVLTQSPATLSLSPGERATLSCSAFSSVNYMHWYQQKPGQAPRLLIYTTSNLASGIPTRFSGSGSGTSYTLTISSLEPEDFAVYYCQQRSTYPFTFGQGTKLEIK
notes: humanized c23

Legend:
[1] = molecular target: T1, human CD39 (full length, on cells); test: FACS competition on CHOK1-hCD39; competitor mAb23-Alexa488
Procedure: (§1) Anti-CD39 antibodies were labeled using Alex488 labeling kit and were diluted in a series of concentrations, before mixing with CHOK1-hCD39 cells to test binding EC₅₀using FACS. The non-labeled antibodies were tested for their blocking efficacy to the labelled ones. Briefly, mononuclear CHOK1-hCD39 cells were prepared to 2×10⁶/ml and plated into 96 well at 50 μl/well, then mixed with antibodies gradients to final volume at 100 μl, and then equal volume of Alex488 label antibodies were added at two folds EC80 concentration. 96 well plates were incubated at 4° C. for 1 hour, and spun down and washed 3 times with 200 μl FACS buffer. The FACS analysis was performed on FACScelesta machine and data was analyzed by Flowjo software. The blocking percentages were calculated and those having above 80% competition rate were allocated into one epitope group, compared with the non-competing well (Alex488 labeled antibody only).
(§2) Based on the competition results, the 4 anti-CD39 hybridoma antibodies (mAb14, mAb19, mAb21, mAb23) can be grouped into 4 different epitope groups, as shown in Table 11.

[2] = molecular target: T1, human CD39 (full length, on cells); test: FACS, SK-MEL-28 cells
Procedure: FACS were used to determine binding of the antibodies to cell lines expressing CD39 naturally (SK-MEL-28) or recombinantly (CHOK1-hCD39, CHOK1-cynoCD39, and CHOK1-mCD39), or with cells lacking CD39 expression (CHOK1-blank) as a negative control.
(§3) Similarly, human CD39 expressing cells SK-MEL-5, SK-MEL-28 or MOLP-8, were incubated with a gradient concentration of anti-CD39 antibodies for 30 minutes at 4° C. Cells were washed 3 times using FACS buffer and next incubated with fluorescence labelled secondary antibody (goat-anti-mouse IgG or goat anti-human IgG) for 30 minutes at 4° C. Cells were washed 3 times and then re-suspended in FACS buffer and analyzed by flow cytometry analysis on BD Celesta. Data plotted and analyzed using GraphPad Prism 8.02.

[3] = molecular target: T1, human CD39 (full length, on cells); test: FACS competition on CHOK1-hCD39; competitor 9-8B-Alexa488
Procedure: as §1, §2

[4] = molecular target: T1, human CD39 (full length, on cells); test: FACS competition on CHOK1-hCD39; competitor mAb21-Alexa488
Procedure: as §1, §2

[5] = molecular target: T1, human CD39 (full length, on cells); test: cell-based or functional assay
[6] = molecular target: T1, human CD39 (full length, on cells); test: FACS, SK-MEL-5 cells
Procedure: as §3
Binding affinity of the humanized antibodies hu23.H5L5 and hu14.H1L1 were tested on different cells by FACS following the similar method as described in Example 3.2.
Reference antibodies T895 and 1394 were tested in parallel as control antibodies. As shown in FIG. 12 and summarized in Table 23, both antibodies hu23.H5L5 and hu14.H1L1 bound to human and cynomolgus CD39 expressing cells in a dose-dependent manner and with similar affinity by EC₅₀ at a sub-nanomolar or nanomolar level. Neither of them recognized mouse CD39 in the FACS study. Maximum signal (mean fluorescence intensity, MFI) differed between cells for each antibody may result from their different expression level.

Binder	blocking percentage [1] [%]	EC50 [2] [nM]	blocking percentage [3] [%]	blocking percentage [4] [%]	SK-MEL-28 cell based ATPase inhibition % at 10 nM [5] [%]	EC50 [6] [nM]
B1	-26	28	-11	10	57	–
B2	–	–	–	–	–	0.21
B3	100	0.8	98	16	21	–
B4	–	–	–	–	–	0.69
